B1: 52H5D3B8-3# chimeric mAb (antibody, V domains shown)
VH: QVQLQQSGAELVRPGASVKLSCKALGYTFTDYEMHWVKQTPVHGLEWIGAIHPGSGGTAYNQKFKGKATLTADKFSSTGYMELSSLTSEDSAVYYCTRFYSYAYWGQGTLVTVSA
VL: DVVMTQTPLSLPVSLGDQASISCRSSQSLVHSNGNTYLQWYLQKPGQSPKLLIYKVSNRFSGVPDRFSGSGSGTDFILKISRVEAEDLGVYFCFQSIHVPYTFGGGTKLEIK
notes: CDR3 mutant of the 52H5D3B8 chimeric mAb (human IgG1)
B2: 52H5D3B8-13# chimeric mAb (antibody, V domains shown)
VH: B1 VH with F99Y, Y102F
VL: B1 VL with F94S, I97T
notes: as for B1
B3: 52H5D3B8-5# chimeric mAb (antibody, V domains shown)
VH: B1 VH with F99Y, Y102F
VL: B1 VL with F94S
notes: as for B1
B4: 52H5D3B8-7# chimeric mAb (antibody, V domains shown)
VH: B1 VH with F99Y
VL: B1 VL with F94S, I97T
notes: as for B1
B5: 52H5D3B8-10# chimeric mAb (antibody, V domains shown)
VH: B1 VH
VL: B1 VL with I97T
notes: as for B1
B6: 52H5D3B8-9# chimeric mAb (antibody, V domains shown)
VH: B1 VH with Y102F
VL: B1 VL with F94S, I97T
notes: as for B1
B7: 52H5D3B8-14# chimeric mAb (antibody, V domains shown)
VH: B1 VH with F99Y, Y102F
VL: B1 VL
notes: as for B1
B8: 52H5D3B8-15# chimeric mAb (antibody, V domains shown)
VH: B1 VH with F99Y, Y102F
VL: B1 VL with I97T
notes: as for B1
B9: 52H5D3B8-4# chimeric mAb (antibody, V domains shown)
VH: B1 VH
VL: B1 VL with F94S, I97T
notes: as for B1
B10: 52H5D3B8-2# chimeric mAb (antibody, V domains shown)
VH: B1 VH with Y102F
VL: B1 VL with F94S
notes: as for B1
B11: 52H5D3B8-8# chimeric mAb (antibody, V domains shown)
VH: B1 VH with Y102F
VL: B1 VL
notes: as for B1
B12: 52H5D3B8-11# chimeric mAb (antibody, V domains shown)
VH: B1 VH with Y102F
VL: B1 VL with I97T
notes: as for B1
B13: 52H5D3B8-1# chimeric mAb (antibody, V domains shown)
VH: B1 VH with F99Y
VL: B1 VL with F94S
notes: as for B1
B14: 52H5D3B8-12# chimeric mAb (antibody, V domains shown)
VH: B1 VH with F99Y
VL: B1 VL with I97T
notes: as for B1
B15: 18C1D9 mouse monoclonal antibody (antibody, V domains shown)
VH: B1 VH with K19T, L25S, T30S, H52D, G54E, S55T, F75S, G79A, S84R, F99Y
VL: B1 VL with T7S, S26R, I77T, I111K
notes: mouse hybridoma antibody
B16: 171F9C5 mouse monoclonal antibody (antibody, V domains shown)
VH: QVQLQQSGAELVRPGASVTLSCKASGYTFTDYEIHWVKQTPVHGLEWIGAIDPETDNTAYSQKFKGKAILTADKSSSTAYMELRSLTSEDSAVYYCTRYYSYAYWGQGTLVTVSA
VL: B1 VL with L29P, S32R, Q39H, Y54F, I77T, E84A, F94S, S96T, I97T
notes: mouse hybridoma antibody
B17: 52H5D3B8 mouse monoclonal antibody (antibody, V domains shown)
VH: B1 VH
VL: B1 VL with F94S
notes: mouse hybridoma antibody
B18: 163E7D12 mouse monoclonal antibody (antibody, V domains shown)
VH: B16 VH with I34M, D52G, D56G, N57S, S61N, K63R, L70V, Y102F
VL: B1 VL with D17G, Y54F, I77T
notes: mouse hybridoma antibody
B19: 172B4E9 mouse monoclonal antibody (antibody, V domains shown)
VH: QVQLQQSGAELVRPGASVTLSCKASGYTFTDYEIHWVKQTPVHGLEWIGAIDPATGDTAYTQKFKGKAILTADTSSNTVYMELRGLTSEDSAVHFCTRFYSYAYWGQGTLVTVSA
VL: B1 VL with S32T, N35H, P45S, K50R, Y54F, I77K, F94S, I97T
notes: mouse hybridoma antibody
B20: 152E9F7 mouse monoclonal antibody (antibody, V domains shown)
VH: B19 VH with A54E, T74K, G85S, H94Y, F95Y
VL: B1 VL with S32T, N35H, P45S, I77T, F94S, I97T
notes: mouse hybridoma antibody

Where a chain is given by its changes, count along the chain named.

The first experiment deals with T1, human GPC3-his tag protein (human, UniProt P51654 25-559, limits assumed).
T1 construct: recombinant soluble antigen used as analyte in all Biacore runs; also called recombinant GPC3 protein; rhGPC3-His; not shown: His tag
Kind of experiment: SPR Biacore 8K, mAb captured, one or two doses GPC3-his. How it is done: The binding of the optimized antibodies of 52H5D3B8 mAb to human GPC3-his was tested with Biacore using a capture method. A single dose or two doses of human GPC3-his tag protein was injected over captured antibody. All the experiments were carried out on a Biacore 8K. Data analysis was carried out using Biacore 8K evaluation software.
(Surface plasmon resonance follows binding to a sensor surface in real time, without labels.)
In general, Kd refers to the free concentration of one partner at which half of the binding sites on the other are occupied at equilibrium, for simple one-to-one binding. A lower Kd goes with higher affinity. For orientation: koff means the rate constant with which the complex falls apart. As a reminder, the kon is a measure of how fast the partners come together. High values mean fast association, low ones slow association. In the case of B1, the Kd came to 1.06 nM, the koff amounted to 0.000556 s⁻¹ and the on-rate (kon) is 525000 M⁻¹ s⁻¹.
On to B2, for which the Kd stood at 28.9 nM, the off-rate (koff) is 0.00143 s⁻¹ and the on-rate (kon) is 49600 M⁻¹ s⁻¹.
The corresponding values for B3 are 4.12 nM, 0.000412 s⁻¹ and 100000 M⁻¹ s⁻¹.
In turn, B4 showed an equilibrium dissociation constant (Kd) of 3.97 nM, a koff of 0.000617 s⁻¹ and a kon of 155000 M⁻¹ s⁻¹.
For B5 the same measures were 4.05 nM, 0.00118 s⁻¹ and 291000 M⁻¹ s⁻¹.
For B6 the same measures were 12.9 nM, 0.00216 s⁻¹ and 167000 M⁻¹ s⁻¹.
For B7 the same measures were 1.53 nM, 0.000737 s⁻¹ and 481000 M⁻¹ s⁻¹.
With B8, the affinity, expressed as Kd, was 28.2 nM; the dissociation rate constant (koff) turned out to be 0.00755 s⁻¹; the association rate constant (kon) is 267000 M⁻¹ s⁻¹.
For B9 the same measures were 1.72 nM, 0.000578 s⁻¹ and 335000 M⁻¹ s⁻¹.
B10: the affinity, expressed as Kd, was 5.31 nM; the koff is 0.00121 s⁻¹; the on-rate constant (kon) is 228000 M⁻¹ s⁻¹.
For B11 the same measures were 2.03 nM, 0.001 s⁻¹ and 494000 M⁻¹ s⁻¹.
The molecule B12 gave a Kd of 10.9 nM, a koff of 0.00354 s⁻¹ and an on-rate constant (kon) of 326000 M⁻¹ s⁻¹.
For B13 the same measures were 0.74 nM, 0.000288 s⁻¹ and 390000 M⁻¹ s⁻¹.
In the case of B14, the affinity, expressed as Kd, was 5.56 nM; the koff turned out to be 0.00133 s⁻¹; the on-rate constant (kon) amounted to 240000 M⁻¹ s⁻¹.

The target in the next experiment is T1, human GPC3-his tag protein. Put plainly: SPR Biacore 8K, mAb captured on CM5, single dose GPC3-his. How it is done: The binding of mouse monoclonal antibodies to human GPC3-his was tested with Biacore using a capture method. The antibodies were captured using CM5 sensor chip. A single dose of human GPC3-his tag protein was injected over captured antibody for 2 mins at a flow rate of 30 μl/min. The antigen was allowed to dissociate for 360 s. All the experiments were carried out on a Biacore 8K. Data analysis was carried out using Biacore 8K evaluation software.
The molecule B15 yielded a Kd of 1.57 nM, a koff of 0.000412 s⁻¹ and a kon of 262000 M⁻¹ s⁻¹.
B16 came in with an equilibrium dissociation constant (Kd) of 1.22 nM, an off-rate (koff) of 0.000199 s⁻¹ and a kon of 162000 M⁻¹ s⁻¹.
As to B17, the equilibrium dissociation constant (Kd) worked out at 1.39 nM, the koff is 0.000317 s⁻¹ and the kon amounted to 228000 M⁻¹ s⁻¹.
For B18 the same measures were 0.755 nM, 0.000169 s⁻¹ and 223000 M⁻¹ s⁻¹.
For B19 the same measures were 0.446 nM, 9.01e-05 s⁻¹ and 202000 M⁻¹ s⁻¹.
For B20, binding was characterised by a dissociation constant (Kd) of 0.881 nM, the koff is 0.000162 s⁻¹ and the association rate constant (kon) is 184000 M⁻¹ s⁻¹.

In another experiment the target is T2, human GPC3 on cells (human, UniProt P51654 25-554).
T2 construct: whole, on cells; over-expressed on CHOK1 cells or endogenous on HEPG2, Hep3B and Huh-7 hepatocellular carcinoma cells; the cell line is named under assay; also called GPC3-CHOK1 cells; human GPC3 over-expressed CHOK1 cells
Put plainly: FACS, GPC3-CHOK1 cells. How it is done: Briefly, GPC3-CHOK1 cells were firstly incubated with Fc blocking reagent at 4° C. for 15 mins. Cells were washed by FACS buffer and divided to each well with 3-fold serially diluted 52H5D3B8, 52H5D3B8-1 #, 52H5D3B8-2 #, 52H5D3B8-3 #, 52H5D3B8-4 #, 52H5D3B8-5 #, 52H5D3B8-6 #, 52H5D3B8-7 #, 52H5D3B8-8 #, 52H5D3B8-9 #, 52H5D3B8-10 #, 52H5D3B8-11 #, 52H5D3B8-12 #, 52H5D3B8-13 #, 52H5D3B8-14 # and 52H5D3B8-15# chimeric mAbs starting at 30 μg/mL at 4° C. for 60 mins. Cells were washed by FACS buffer and fixed with 2% PFA at RT for 15 mins. […] Samples were washed twice with FACS buffer.
A general note: A flow cytometer gives signals particle by particle.
Broadly, the EC50 is the concentration needed to bring the measured effect to its halfway point. Read a low EC50 as higher potency in that assay. B1 had an EC50 of 0.0869 µg/mL.
Same read-out and setting: the figure for B2 is 1.55 µg/mL; for B3 it is 0.405 µg/mL; for B4 it is 0.232 µg/mL.
B5 returned an EC50 of 0.176 µg/mL. The EC50 values of the last two molecules are within 1.5-fold of each other.
The same measure, in the same setting: the figure for B6 is 0.247 µg/mL; for B7 it is 0.0895 µg/mL; for B8 it is 0.15 µg/mL.
On the same count and under the same terms, for B9 the value was 0.0986 µg/mL; for B10, 0.149 µg/mL.
Same read-out and setting: for B11 the value was 0.0919 µg/mL; for B12, 0.104 µg/mL.
As to B13, the response was half-maximal at 0.104 µg/mL (EC50).
The same measure, in the same setting: for B14 the value was 0.235 µg/mL.
